Experimental data taken from publication PMC7553779 (eLife, 2020).

T1: chicken acid-sensing ion channel 1 (cASIC1), full-length (chicken, UniProt Q1XA76 1-527)
T1 sequence (looked up): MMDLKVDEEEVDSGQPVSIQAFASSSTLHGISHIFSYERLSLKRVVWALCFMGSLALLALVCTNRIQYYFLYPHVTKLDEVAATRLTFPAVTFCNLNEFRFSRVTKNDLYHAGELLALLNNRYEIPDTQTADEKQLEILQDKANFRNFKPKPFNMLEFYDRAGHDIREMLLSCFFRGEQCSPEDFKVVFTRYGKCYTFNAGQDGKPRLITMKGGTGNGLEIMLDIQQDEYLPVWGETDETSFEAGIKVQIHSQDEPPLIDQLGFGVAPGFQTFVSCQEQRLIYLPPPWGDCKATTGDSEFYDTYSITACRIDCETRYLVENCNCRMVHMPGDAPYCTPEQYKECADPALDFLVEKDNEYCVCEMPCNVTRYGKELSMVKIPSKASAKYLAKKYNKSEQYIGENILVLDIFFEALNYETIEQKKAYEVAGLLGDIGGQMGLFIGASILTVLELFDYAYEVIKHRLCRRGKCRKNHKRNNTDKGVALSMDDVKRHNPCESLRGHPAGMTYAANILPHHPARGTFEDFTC

T2: human acid-sensing ion channel 1a (hASIC1a), full-length, wild type (human, UniProt P78348-2 1-528)
T2 sequence (looked up): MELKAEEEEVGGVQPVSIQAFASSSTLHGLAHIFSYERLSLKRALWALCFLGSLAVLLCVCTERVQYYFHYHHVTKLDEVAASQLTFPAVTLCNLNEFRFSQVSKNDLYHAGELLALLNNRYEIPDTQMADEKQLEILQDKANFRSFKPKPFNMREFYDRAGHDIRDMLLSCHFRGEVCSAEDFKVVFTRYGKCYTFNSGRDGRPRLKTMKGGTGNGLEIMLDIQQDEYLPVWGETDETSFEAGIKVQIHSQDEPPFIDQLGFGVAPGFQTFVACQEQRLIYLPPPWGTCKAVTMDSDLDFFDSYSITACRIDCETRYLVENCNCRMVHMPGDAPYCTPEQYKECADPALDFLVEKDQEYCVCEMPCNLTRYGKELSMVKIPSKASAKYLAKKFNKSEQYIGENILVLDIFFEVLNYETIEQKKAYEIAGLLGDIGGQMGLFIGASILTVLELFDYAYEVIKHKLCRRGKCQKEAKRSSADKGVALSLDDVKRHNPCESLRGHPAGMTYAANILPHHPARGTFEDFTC

B1: truncated human acid-sensing ion channel 1a with the 60 carboxyl terminal residues removed (hASIC1a^ΔC) (domain or fragment)
chain: MELKAEEEEVGGVQPVSIQAFASSSTLHGLAHIFSYERLSLKRALWALCFLGSLAVLLCVCTERVQYYFHYHHVTKLDEVAASQLTFPAVTLCNLNEFRFSQVSKNDLYHAGELLALLNNRYEIPDTQMADEKQLEILQDKANFRSFKPKPFNMREFYDRAGHDIRDMLLSCHFRGEVCSAEDFKVVFTRYGKCYTFNSGRDGRPRLKTMKGGTGNGLEIMLDIQQDEYLPVWGETDETSFEAGIKVQIHSQDEPPFIDQLGFGVAPGFQTFVACQEQRLIYLPPPWGTCKAVTMDSDLDFFDSYSITACRIDCETRYLVENCNCRMVHMPGDAPYCTPEQYKECADPALDFLVEKDQEYCVCEMPCNLTRYGKELSMVKIPSKASAKYLAKKFNKSEQYIGENILVLDIFFEVLNYETIEQKKAYEIAGLLGDIGGQMGLFIGASILTVLELFDYAYEVIKHKLCRR
notes: Trimer in the cryo-EM structures; […]; also called apo-hASIC1a^ΔC
B2: Mambalgin1 (Mamba1) (peptide)
chain: LKCYQHGKVVTCHRDMKFCYHNTGMPFRNLKLILQGCSSSCSETENNKCCSTDRCNK
notes: also called wild-type Mamba1

Key:
[1] = target: the molecule itself; assay: cryo-EM structure; apo-hASIC1a^ΔC, single-particle cryo-EM, 2.7 mg/ml, 20 mM Tris pH 8.0, 200 mM NaCl, 0.05% DDM, 0.01% CHS; C3 symmetry imposed; 3.56 Å
[2] = target: T1, chicken acid-sensing ion channel 1 …; assay: cell-based or functional assay
[3] = target: T2, human acid-sensing ion channel 1a …; assay: cell-based or functional assay
[4] = target: B1; assay: cryo-EM structure; hASIC1a^ΔC-Mamba1 complex, toxin added in a 6:1 molar ratio of toxin to channel, 1 hr at 4°C, 20 mM Tris pH 8.0, 200 mM NaCl, 0.05% DDM, 0.01% CHS; 3.1 mg/ml; 3.90 Å; settings: both partners purified

Binder: B1
- stoichiometry N [1]: 3

Binder: B2
- IC50 of inhibition of acid-evoked (pH 6.0) currents, whole-cell patch clamp, full-length cASIC1 in CHO cells [2]: 124 nM
- IC50 of inhibition of acid-evoked (pH 6.0) currents, whole-cell patch clamp, full-length hASIC1a in CHO cells [3]: 197 nM
- IC50 of inhibition of full-length hASIC1a in CHO cells ('the reported IC50', Figure 1b) [3]: 149 nM
- stoichiometry N [4]: 1 Mamba1 per hASIC1a^ΔC subunit
